T1: ZmUB3 (Zea mays, UniProt A0A804P0G2 1-407)
T1 sequence: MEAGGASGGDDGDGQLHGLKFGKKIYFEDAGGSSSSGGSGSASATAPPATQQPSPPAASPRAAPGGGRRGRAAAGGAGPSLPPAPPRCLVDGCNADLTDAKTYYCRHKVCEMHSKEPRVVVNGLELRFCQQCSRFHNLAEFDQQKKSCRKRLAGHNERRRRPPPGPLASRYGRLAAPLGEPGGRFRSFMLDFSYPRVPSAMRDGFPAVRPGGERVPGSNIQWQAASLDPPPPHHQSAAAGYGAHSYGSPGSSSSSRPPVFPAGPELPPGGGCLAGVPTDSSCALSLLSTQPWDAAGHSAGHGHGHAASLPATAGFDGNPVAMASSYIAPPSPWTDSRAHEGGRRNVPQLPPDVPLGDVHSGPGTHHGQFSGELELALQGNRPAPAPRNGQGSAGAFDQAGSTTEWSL

B1: ZmLHT14 MBS 40 bp probe (dsDNA)
DNA 1: GCGGTGCCGGAGTAGATAACTGGTACTACAAAACACAATA
DNA 2: TATTGTGTTTTGTAGTACCAGTTATCTACTCCGGCACCGC
B2: ZmMYB63 promoter GTAC 40 bp probe (dsDNA)
DNA 1: AAGTTTTGCGCACAGTGGTACGGAGGCGGACTGCTCCAAT
DNA 2: ATTGGAGCAGTCCGCCTCCGTACCACTGTGCGCAAAACTT
B3: ZmSWEET13c MBS 40 bp probe (dsDNA)
DNA 1: ATGCTGTATTGAGTCCCCCGTTGTCGGAAATTAAAATTAT
DNA 2: ATAATTTTAATTTCCGACAACGGGGGACTCAATACAGCAT
B4: ZmSWEET10 MBS 40 bp probe (dsDNA)
DNA 1: TCCCGGCCCTGTGCTGATAACTGTCTCTCTTTATTACGTG
DNA 2: CACGTAATAAAGAGAGACAGTTATCAGCACAGGGCCGGGA
B5: ZmMYB42 promoter GTAC 40 bp probe (dsDNA)
DNA 1: TAACAAGGGCTTAACATGGTACGGTTTATTATATGTCAGA
DNA 2: TCTGACATATAATAAACCGTACCATGTTAAGCCCTTGTTA

Experiments:
ZmMYB42 = ZmMYB42 (Zea mays, UniProt K7V4N7 1-264); test: EMSA
ZmUB3 = target: T1, ZmUB3; test: EMSA

Binder	binding result (ZmMYB42)	binding result (ZmUB3)
B1	binds	
B2		binds
B3	binds	
B4	binds	
B5		binds

From PMC11772326
